Starred links: 1 amine or outer side, 2 acyl side, 3 side chain; linkers in the order of their positions; H or OH if unused. Positions of bridges follow the written chain, without caps; N, C: chain ends. Non-standard residues stand in square brackets, D forms with d. Groups on a side chain read outwards from the residue. *: point of attachment. Trp(1-Me) = Cn1cc(C[C@H](N)C(=O)O)c2ccccc21; C18 diacid = O=C(O)CCCCCCCCCCCCCCCCC(=O)*; C16 diacid = O=C(O)CCCCCCCCCCCCCCC(=O)*; γGlu = O=C(O)[C@H](CCC(=O)[*:2])N[*:1]; AEEA = NCCOCCOCC(=O)O; Sar = CNCC(=O)O
Legend:
[1] = target: T1, Human C3 (Complement tech cat #A113c) (human, UniProt P01024 23-1663); assay: cell-based or functional assay
[2] = target: T1, Human C3 (Complement tech cat #A113c); assay: SPR (Biacore T200), human C3 immobilised, peptide injected, 1:1 fit
Method: Surface plasmon resonance (SPR) was used to characterize peptides with respect to their binding affinity (Kd) for C3. Human C3 (Complement tech cat #A113c) was immobilised on individual flow cells of CM5 sensor chips (GE Healthcare) using standard amine coupling to a density of approximately 3000 resonance units (RU) in a buffer consisting of 10 mM phosphate pH 7.4, 150 mM NaCl, 0.05% Tween20.
For interaction experiments a multi-cycle experiment approach was used and performed using a BiacoreT200™ instrument (GE Healthcare) at 25° C. Peptides were injected in increasing concentration series (6-8 different concentrations) for 60-120 sat a flow rate of 30 µL/min in a buffer consisting of 10 mM Tris buffer at pH 7.4, with 150 mM NaCl and 0.05% Tween20. This was followed by a dissociation period for up to 10 min. The C3 surface was regenerated between runs by a 45 s injection of 3 M MgCl_2.

T1 sequence (P01024 23-1663 limits assumed): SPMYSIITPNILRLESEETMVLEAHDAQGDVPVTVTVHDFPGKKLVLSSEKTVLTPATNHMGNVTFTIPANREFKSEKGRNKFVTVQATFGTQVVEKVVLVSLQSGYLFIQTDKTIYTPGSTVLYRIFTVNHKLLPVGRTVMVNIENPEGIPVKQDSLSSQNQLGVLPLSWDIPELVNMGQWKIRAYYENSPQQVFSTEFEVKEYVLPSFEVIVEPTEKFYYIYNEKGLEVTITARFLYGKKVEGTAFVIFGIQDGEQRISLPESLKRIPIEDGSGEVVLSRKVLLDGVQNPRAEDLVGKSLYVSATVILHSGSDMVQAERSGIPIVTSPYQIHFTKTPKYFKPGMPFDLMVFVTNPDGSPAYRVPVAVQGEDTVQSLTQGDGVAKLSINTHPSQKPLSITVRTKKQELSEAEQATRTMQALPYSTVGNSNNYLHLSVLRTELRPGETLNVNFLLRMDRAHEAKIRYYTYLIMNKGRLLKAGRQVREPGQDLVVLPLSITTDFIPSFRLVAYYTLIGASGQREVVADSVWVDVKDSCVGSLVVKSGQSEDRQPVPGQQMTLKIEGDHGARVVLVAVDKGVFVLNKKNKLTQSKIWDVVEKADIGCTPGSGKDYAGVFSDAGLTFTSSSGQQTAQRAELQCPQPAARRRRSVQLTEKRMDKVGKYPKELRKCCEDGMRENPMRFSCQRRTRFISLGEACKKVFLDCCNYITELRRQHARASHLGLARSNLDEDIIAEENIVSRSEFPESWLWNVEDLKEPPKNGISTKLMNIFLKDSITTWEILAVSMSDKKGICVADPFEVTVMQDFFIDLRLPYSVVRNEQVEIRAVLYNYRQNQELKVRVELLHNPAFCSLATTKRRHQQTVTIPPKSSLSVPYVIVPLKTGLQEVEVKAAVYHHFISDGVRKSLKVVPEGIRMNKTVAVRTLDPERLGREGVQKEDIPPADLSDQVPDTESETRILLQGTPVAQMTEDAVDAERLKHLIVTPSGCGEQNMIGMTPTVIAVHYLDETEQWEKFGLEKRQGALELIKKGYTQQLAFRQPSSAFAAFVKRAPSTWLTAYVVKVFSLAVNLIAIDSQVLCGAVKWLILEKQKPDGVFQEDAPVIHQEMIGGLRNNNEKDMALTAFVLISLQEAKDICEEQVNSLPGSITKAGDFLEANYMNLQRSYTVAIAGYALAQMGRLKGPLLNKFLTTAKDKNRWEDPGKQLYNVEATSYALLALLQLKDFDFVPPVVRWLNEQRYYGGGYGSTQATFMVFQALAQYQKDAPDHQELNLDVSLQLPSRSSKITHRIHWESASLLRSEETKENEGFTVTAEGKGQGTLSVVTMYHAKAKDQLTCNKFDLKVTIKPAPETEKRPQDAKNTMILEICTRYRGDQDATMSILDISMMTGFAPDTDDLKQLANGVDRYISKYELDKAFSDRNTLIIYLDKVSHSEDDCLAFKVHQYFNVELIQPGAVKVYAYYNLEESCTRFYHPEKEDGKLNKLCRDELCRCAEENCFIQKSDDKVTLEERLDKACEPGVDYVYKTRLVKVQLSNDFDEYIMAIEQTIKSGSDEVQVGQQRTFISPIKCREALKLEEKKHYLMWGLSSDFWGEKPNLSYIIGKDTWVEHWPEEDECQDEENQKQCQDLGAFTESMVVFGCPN

| Kd [2] [nM] | Binder | inhibition of hemolysis IC50 [1] [nM] |
| --- | --- | --- |
|  | Ac-SE[Sar]CI[Trp(1-Me)]QEW[Sar]EHRCTEA-NH2 (disulfide 4-14; SMILES CC[C@H](C)[C@@H]1NC(=O)[C@@H](NC(=O)CN(C)C(=O)[C@H](CCC(=O)O)NC(=O)[C@H](CO)NC(C)=O)CSSC[C@@H](C(=O)N[C@H](C(=O)N[C@@H](CCC(=O)O)C(=O)N[C@@H](C)C(N)=O)[C@@H](C)O)NC(=O)[C@H](CCCNC(=N)N)NC(=O)[C@H](Cc2c[nH]cn2)NC(=O)[C@H](CCC(=O)O)NC(=O)CN(C)C(=O)[C@H](Cc2c[nH]c3ccccc23)NC(=O)[C@H](CCC(=O)O)NC(=O)[C@H](CCC(N)=O)NC(=O)[C@H](Cc2cn(C)c3ccccc23)NC1=O) [Compound 89] | < 100 |
|  | H-[dY][Sar]CI[Trp(1-Me)]QDWGEHRCTEA-NH2 (disulfide 3-13; SMILES CC[C@H](C)[C@@H]1NC(=O)[C@@H](NC(=O)CN(C)C(=O)[C@H](N)Cc2ccc(O)cc2)CSSC[C@@H](C(=O)N[C@H](C(=O)N[C@@H](CCC(=O)O)C(=O)N[C@@H](C)C(N)=O)[C@@H](C)O)NC(=O)[C@H](CCCNC(=N)N)NC(=O)[C@H](Cc2c[nH]cn2)NC(=O)[C@H](CCC(=O)O)NC(=O)CNC(=O)[C@H](Cc2c[nH]c3ccccc23)NC(=O)[C@H](CC(=O)O)NC(=O)[C@H](CCC(N)=O)NC(=O)[C@H](Cc2cn(C)c3ccccc23)NC1=O) [Compound 91] | < 100 |
| 5.4 | Ac-SAYCI[Trp(1-Me)]QDWGEHRC[Sar]EK([γGlu-Gly-γGlu-C18 diacid])-NH2 (disulfide 4-14; SMILES CC[C@H](C)[C@@H]1NC(=O)[C@@H](NC(=O)[C@H](Cc2ccc(O)cc2)NC(=O)[C@H](C)NC(=O)[C@H](CO)NC(C)=O)CSSC[C@@H](C(=O)N(C)CC(=O)N[C@@H](CCC(=O)O)C(=O)N[C@@H](CCCCNC(=O)CC[C@H](NC(=O)CNC(=O)CC[C@H](NC(=O)CCCCCCCCCCCCCCCCC(=O)O)C(=O)O)C(=O)O)C(N)=O)NC(=O)[C@H](CCCNC(=N)N)NC(=O)[C@H](Cc2c[nH]cn2)NC(=O)[C@H](CCC(=O)O)NC(=O)CNC(=O)[C@H](Cc2c[nH]c3ccccc23)NC(=O)[C@H](CC(=O)O)NC(=O)[C@H](CCC(N)=O)NC(=O)[C@H](Cc2cn(C)c3ccccc23)NC1=O) [Compound 106] | < 250 |
| 1.7 | Ac-FCI[Trp(1-Me)]QDWGEHRCTGAESK([AEEA-AEEA-γGlu-C16 diacid])-NH2 (disulfide 2-12; SMILES CC[C@H](C)[C@@H]1NC(=O)[C@@H](NC(=O)[C@H](Cc2ccccc2)NC(C)=O)CSSC[C@@H](C(=O)N[C@H](C(=O)NCC(=O)N[C@@H](C)C(=O)N[C@@H](CCC(=O)O)C(=O)N[C@@H](CO)C(=O)N[C@@H](CCCCNC(=O)COCCOCCNC(=O)COCCOCCNC(=O)CC[C@H](NC(=O)CCCCCCCCCCCCCCC(=O)O)C(=O)O)C(N)=O)[C@@H](C)O)NC(=O)[C@H](CCCNC(=N)N)NC(=O)[C@H](Cc2c[nH]cn2)NC(=O)[C@H](CCC(=O)O)NC(=O)CNC(=O)[C@H](Cc2c[nH]c3ccccc23)NC(=O)[C@H](CC(=O)O)NC(=O)[C@H](CCC(N)=O)NC(=O)[C@H](Cc2cn(C)c3ccccc23)NC1=O) [Compound 102] | < 100 |
| 1.5 | Ac-ICI[Trp(1-Me)]QDWGEHRCT-NH2 (disulfide 2-12; SMILES CC[C@H](C)[C@H](NC(C)=O)C(=O)N[C@H]1CSSC[C@@H](C(=O)N[C@H](C(N)=O)[C@@H](C)O)NC(=O)[C@H](CCCNC(=N)N)NC(=O)[C@H](Cc2c[nH]cn2)NC(=O)[C@H](CCC(=O)O)NC(=O)CNC(=O)[C@H](Cc2c[nH]c3ccccc23)NC(=O)[C@H](CC(=O)O)NC(=O)[C@H](CCC(N)=O)NC(=O)[C@H](Cc2cn(C)c3ccccc23)NC(=O)[C@H]([C@@H](C)CC)NC1=O) [Compound 4] | < 100 |
| 34 | Ac-EGSAYCI[Trp(1-Me)]QDWGEHRC[Sar]EGK([AEEA-AEEA-γGlu-C16 diacid])-NH2 (disulfide 6-16; SMILES CC[C@H](C)[C@@H]1NC(=O)[C@@H](NC(=O)[C@H](Cc2ccc(O)cc2)NC(=O)[C@H](C)NC(=O)[C@H](CO)NC(=O)CNC(=O)[C@H](CCC(=O)O)NC(C)=O)CSSC[C@@H](C(=O)N(C)CC(=O)N[C@@H](CCC(=O)O)C(=O)NCC(=O)N[C@@H](CCCCNC(=O)COCCOCCNC(=O)COCCOCCNC(=O)CC[C@H](NC(=O)CCCCCCCCCCCCCCC(=O)O)C(=O)O)C(N)=O)NC(=O)[C@H](CCCNC(=N)N)NC(=O)[C@H](Cc2c[nH]cn2)NC(=O)[C@H](CCC(=O)O)NC(=O)CNC(=O)[C@H](Cc2c[nH]c3ccccc23)NC(=O)[C@H](CC(=O)O)NC(=O)[C@H](CCC(N)=O)NC(=O)[C@H](Cc2cn(C)c3ccccc23)NC1=O) [Compound 104] | < 100 |
|  | Ac-SE[Sar]CI[Trp(1-Me)]QEWGEHRC[Sar]EA-NH2 (disulfide 4-14; SMILES CC[C@H](C)[C@@H]1NC(=O)[C@@H](NC(=O)CN(C)C(=O)[C@H](CCC(=O)O)NC(=O)[C@H](CO)NC(C)=O)CSSC[C@@H](C(=O)N(C)CC(=O)N[C@@H](CCC(=O)O)C(=O)N[C@@H](C)C(N)=O)NC(=O)[C@H](CCCNC(=N)N)NC(=O)[C@H](Cc2c[nH]cn2)NC(=O)[C@H](CCC(=O)O)NC(=O)CNC(=O)[C@H](Cc2c[nH]c3ccccc23)NC(=O)[C@H](CCC(=O)O)NC(=O)[C@H](CCC(N)=O)NC(=O)[C@H](Cc2cn(C)c3ccccc23)NC1=O) [Compound 90] | < 250 |
| 1.4 | Ac-EGSAFCI[Trp(1-Me)]QDWGEHRC[Sar]E-NH2 (disulfide 6-16; SMILES CC[C@H](C)[C@@H]1NC(=O)[C@@H](NC(=O)[C@H](Cc2ccccc2)NC(=O)[C@H](C)NC(=O)[C@H](CO)NC(=O)CNC(=O)[C@H](CCC(=O)O)NC(C)=O)CSSC[C@@H](C(=O)N(C)CC(=O)N[C@@H](CCC(=O)O)C(N)=O)NC(=O)[C@H](CCCNC(=N)N)NC(=O)[C@H](Cc2c[nH]cn2)NC(=O)[C@H](CCC(=O)O)NC(=O)CNC(=O)[C@H](Cc2c[nH]c3ccccc23)NC(=O)[C@H](CC(=O)O)NC(=O)[C@H](CCC(N)=O)NC(=O)[C@H](Cc2cn(C)c3ccccc23)NC1=O) [Compound 53] | < 100 |
| 3 | Ac-EGSAYCI[Trp(1-Me)]QDWGEHRC[Sar]E-NH2 (disulfide 6-16; SMILES CC[C@H](C)[C@@H]1NC(=O)[C@@H](NC(=O)[C@H](Cc2ccc(O)cc2)NC(=O)[C@H](C)NC(=O)[C@H](CO)NC(=O)CNC(=O)[C@H](CCC(=O)O)NC(C)=O)CSSC[C@@H](C(=O)N(C)CC(=O)N[C@@H](CCC(=O)O)C(N)=O)NC(=O)[C@H](CCCNC(=N)N)NC(=O)[C@H](Cc2c[nH]cn2)NC(=O)[C@H](CCC(=O)O)NC(=O)CNC(=O)[C@H](Cc2c[nH]c3ccccc23)NC(=O)[C@H](CC(=O)O)NC(=O)[C@H](CCC(N)=O)NC(=O)[C@H](Cc2cn(C)c3ccccc23)NC1=O) [Compound 54] | < 100 |
| 6.1 | {C16 diacid}-EGSEYCI[Trp(1-Me)]QDWGEHRC[Sar]E-NH2 (disulfide 6-16; also: places 15-carboxy-pentadecanoyl on side chain of Glu1, mods on N-terminus) [Compound 107] | < 100 |
|  | Ac-ICIWQDWGEHRCTEGK([AEEA-AEEA-γGlu-C16 diacid])-NH2 (disulfide 2-12; SMILES CC[C@H](C)[C@H](NC(C)=O)C(=O)N[C@H]1CSSC[C@@H](C(=O)N[C@H](C(=O)N[C@@H](CCC(=O)O)C(=O)NCC(=O)N[C@@H](CCCCNC(=O)COCCOCCNC(=O)COCCOCCNC(=O)CC[C@H](NC(=O)CCCCCCCCCCCCCCC(=O)O)C(=O)O)C(N)=O)[C@@H](C)O)NC(=O)[C@H](CCCNC(=N)N)NC(=O)[C@H](Cc2c[nH]cn2)NC(=O)[C@H](CCC(=O)O)NC(=O)CNC(=O)[C@H](Cc2c[nH]c3ccccc23)NC(=O)[C@H](CC(=O)O)NC(=O)[C@H](CCC(N)=O)NC(=O)[C@H](Cc2c[nH]c3ccccc23)NC(=O)[C@H]([C@@H](C)CC)NC1=O) [Compound 93] | < 500 |
|  | Ac-ICIWQDWGEHRCTEGK([γGlu-C16 diacid])-NH2 (disulfide 2-12; SMILES CC[C@H](C)[C@H](NC(C)=O)C(=O)N[C@H]1CSSC[C@@H](C(=O)N[C@H](C(=O)N[C@@H](CCC(=O)O)C(=O)NCC(=O)N[C@@H](CCCCNC(=O)CC[C@H](NC(=O)CCCCCCCCCCCCCCC(=O)O)C(=O)O)C(N)=O)[C@@H](C)O)NC(=O)[C@H](CCCNC(=N)N)NC(=O)[C@H](Cc2c[nH]cn2)NC(=O)[C@H](CCC(=O)O)NC(=O)CNC(=O)[C@H](Cc2c[nH]c3ccccc23)NC(=O)[C@H](CC(=O)O)NC(=O)[C@H](CCC(N)=O)NC(=O)[C@H](Cc2c[nH]c3ccccc23)NC(=O)[C@H]([C@@H](C)CC)NC1=O) [Compound 92] | < 1000 |

— patent publication US11965039B2, “Compstatin analogues and their medical uses” (priority 2018, dated 2024)
